Data from US20170168078A1 (EISAI R AND D MANAGEMENT, published 2017).

Assays:
[1] = molecular target: T1, purified recombinant human folate receptor alpha (rh-FRα) (human, UniProt P15328 25-234); test: SPR, BIACORE T100, antibody captured on anti-mouse IgG, rh-FRα 1-30 nM as analyte, single-cycle kinetics, 1:1 fit
T1 construct: One is secreted from CHO cells, with a human Ig kappa leader and a C-terminal 6x His tag replacing the GPI attachment site; The other is from Sf9 cells, with an N-terminal 6x His tag and the GPI site intact; also called FR-alpha; FOLR1
T1 sequence (P15328 25-234 limits assumed): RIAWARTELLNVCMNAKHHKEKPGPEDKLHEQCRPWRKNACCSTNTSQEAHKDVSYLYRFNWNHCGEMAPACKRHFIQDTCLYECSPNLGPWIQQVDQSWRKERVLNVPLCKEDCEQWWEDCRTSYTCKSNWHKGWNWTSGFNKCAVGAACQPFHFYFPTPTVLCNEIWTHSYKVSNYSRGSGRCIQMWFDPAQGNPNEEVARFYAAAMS
Method: Binding characteristics of the purified monoclonal antibodies to FRα were determined by surface plasmon resonance (SPR) experiments. All of the SPR experiments were performed at 25° C. using a BIACORE™ T100 with research grade CM5 chips (GE Healthcare), as specified by the manufacturer. Initially, anti-mouse IgG provided in the mouse antibody capture kit (GE Healthcare) was immobilized by amide coupling to CM5 sensor chips. Mouse anti-FRα monoclonal antibodies (26B3, 24F12, 19D4, or 9F3) were captured on individual flow cells per binding cycle, while the fourth flow cell was used as a reference. Binding experiments were performed with HBS-P (GE Healthcare) as running buffer and at a flow rate of 30 μL/min. Each monoclonal antibody sample (0.5 μg/mL) was injected for 3 minutes to capture the antibody. Various concentrations of purified recombinant human FRα (rh-FRα) (1 nM-30 nM) were then injected over the FRα-specific and reference surfaces for 3 minutes to record binding sensograms using a single-cycle kinetics method. The dissociation profile was monitored for 25 minutes. In between bindings, the surface was regenerated with a 30 μl injection of 10 mM glycine (pH 1.7). The sensograms were processed and fitted to a 1:1 Langmuir binding model using BIACORE™ T100 evaluation software (version 2.0.1).

[2] = molecular target: T2, purified recombinant human FRβ; test: western blot of 0.5 µg purified protein per lane, reduced and nonreduced, SDS-PAGE
T2 construct: also called human folate receptor beta (purified, secreted form)
T2 sequence (chain, as listed by the source limits assumed): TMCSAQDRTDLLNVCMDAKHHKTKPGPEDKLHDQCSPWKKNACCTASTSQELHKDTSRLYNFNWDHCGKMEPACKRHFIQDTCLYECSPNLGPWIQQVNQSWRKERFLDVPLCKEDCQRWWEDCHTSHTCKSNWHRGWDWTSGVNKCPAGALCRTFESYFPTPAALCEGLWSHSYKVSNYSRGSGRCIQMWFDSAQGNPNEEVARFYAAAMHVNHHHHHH
Method: (§1) Experiments were conducted to determine whether any of the FRα-specific antibodies, described above, could recognize denatured forms of FRα. […] Lysates were pre-cleared by centrifugation at 13,000 rpm for 15 minutes to remove debris. For reduced and denatured samples, equal amounts of protein (20 μg) were boiled for 10 minutes in NUPAGE® LDS sample buffer (Invitrogen) containing 5% β-mercaptoethanol+40 mM DTT. […] The membrane was blocked in PBST+ 5% non-fat milk for lh at room temperature after which time, the membrane was washed twice with PBST. Immunoblotting was conducted using purified mouse monoclonal antibodies 9F3, 19D4, 24F12, or 26B3 (1 μg/mL) specific for FRα, which were detected with a goat-anti-mouse HRP-conjugated antibody and visualized using SUPERSIGNAL™ West Pico chemiluminescent substrate (Pierce, Rockford, Ill.). Luminescence was visualized using the Omega 12iC molecular imaging system (Ultra-Lum, Claremont, Calif.) with image analysis performed using ULTRAQUANT™ 6.0 software (Ultra-Lum).
(§2) Western blot analyses were also performed using purified folate receptor preparations. For these experiments, 0.5 μg of purified human FRα, β, Γ or Δ, produced as described in Example 1, were incubated in 1× SDS-PAGE sample loading buffer (Invitrogen) with or without 20 mM DTT, boiled for 10 min, and electrophoresed on 4-12% gradient SDS-PAGE gels. Protein was transferred to PVDF membrane and blots probed as described above. Gels were run using Benchmark™ prestained protein ladder (NOVEX®). Gels using purified recombinant FR proteins were also visualized via silverstaining to ensure equal amounts of protein were loaded.

[3] = molecular target: T3, purified recombinant human FRΓ; test: as above
T3 construct: also called human folate receptor gamma (purified)
T3 sequence (chain, as listed by the source limits assumed): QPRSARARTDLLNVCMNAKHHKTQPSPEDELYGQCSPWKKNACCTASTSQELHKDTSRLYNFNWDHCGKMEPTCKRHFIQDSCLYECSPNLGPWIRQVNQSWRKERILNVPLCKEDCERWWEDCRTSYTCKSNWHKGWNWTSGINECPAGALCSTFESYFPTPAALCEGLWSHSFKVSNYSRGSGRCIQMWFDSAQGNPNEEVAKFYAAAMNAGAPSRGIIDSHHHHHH
Method: as §1, §2

[4] = molecular target: T4, human FRα expressed on CHO cells (GPI-linked) (human, UniProt P15328 25-234); test: flow cytometry on CHO cells expressing FRα, antibody 1 µg/mL, FITC secondary
T4 construct: CHO/CHOK1 cells stably expressing GPI-linked human FRα; They were used intact in flow cytometry and as nonreduced whole cell lysates in the western blots; also called native FRα; CHO-FRα
T4 sequence (P15328 25-234 limits assumed): as the sequence (P15328 25-234 limits assumed) above
Method: Flow cytometry studies were conducted to assess the ability of selected FRα-specific antibodies to bind to the native protein. For these studies Chinese hamster ovary (CHO) cells expressing FRα, were harvested, washed, and re-suspended in ice-cold growth media (RPMI supplemented with 10% FBS). Cells were incubated for 1 hour on ice with 9F3, 19D4, 24F12, or 26B3 (1 μg/mL), washed and then incubated with FITC-conjugated secondary antibodies [dilution 1:100] (Southern Biotech, Birmingham, Ala.). Prior to analysis, cells were labeled with 7-amino-actinomycin D (7-AAD) (BD Biosciences, Franklin Lakes, N.J.) for the exclusion of nonviable cells. CHO cells not expressing FRα were also subjected to the same experimental procedures, as a negative control. Cells were analyzed on an […]™ Flow Cytometer (GUAVA® Technologies, Hayward, Calif.). The data provided in Table 4 indicate that all four antibodies are capable of binding native FRα.

[5] = molecular target: T5, human folate receptor beta (FRβ) expressed on CHO cells (human, UniProt P14207 17-230); test: western blot of nonreduced whole cell lysates of CHO cells, SDS-PAGE
T5 construct: whole, on cells; also called CHO-FRβ
T5 sequence (P14207 17-230): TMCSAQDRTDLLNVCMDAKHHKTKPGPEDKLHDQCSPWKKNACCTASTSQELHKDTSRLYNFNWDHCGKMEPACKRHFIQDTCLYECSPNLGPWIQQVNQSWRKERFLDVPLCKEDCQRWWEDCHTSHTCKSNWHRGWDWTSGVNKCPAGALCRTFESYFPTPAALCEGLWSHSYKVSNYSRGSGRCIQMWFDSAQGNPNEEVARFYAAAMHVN

Kd [1] | koff [1] | kon [1] | binding result [2] | binding result [3] | Geometric Mean [4] | binding result [5] | Binder
0.567 nM | 0.000242 s⁻¹ | 427000 M⁻¹ s⁻¹ | no binding (tested: 1 µg/mL) | no binding (tested: 1 µg/mL) | 1130 | – | Monoclonal antibody 19D4.B7 (antibody, mouse IgG2a, V domains shown, It was labelled with Ru (about 13 labels per IgG) when used as the detector in the ECL assays; also called ATCC PTA-11884) VH: GAELVKPGASVKLSCTASGFNIKHPYMHWVKQRPDQGLEWIGRIDPANGNTKYDPKFQGKATITADTSSNTAYLQLSSLTSEDTAVYYCGREEVADYTMDYWGQGTSVTVSS VL: PASLAVSLGQRATISCRASESVDTYGNNFIHWYQQKPGQPPKLLIYLASNLESGVPARFSGSGSRTDFTLTIDPVEADDAATYYCQQNNGDPWTFGGGTKLEIKR
0.0273 nM | 1.43e-05 s⁻¹ | 524000 M⁻¹ s⁻¹ | no binding (tested: 1 µg/mL) | no binding (tested: 1 µg/mL) | 854 | no binding (tested: 1 µg/mL) | Monoclonal antibody 26B3.F2 (antibody, mouse IgG1, V domains shown, also called MAb 26B3; ATCC PTA-11885) VH: GPELVKPGASVKISCKASDYSFTGYFMNWVMQSHGKSLEWIGRIFPYNGDTFYNQKFKGRATLTVDKSSSTAHMELRSLASEDSAVYFCARGTHYFDYWGQGTTLTVSS VL: PASLSASVGETVTITCRTSENIFSYLAWYQQKQGISPQLLVYNAKTLAEGVPSRFSGSGSGTQFSLKINSLQPEDFGSYYCQHHYAFPWTFGGGSKLEIKR
0.715 nM | 0.00031 s⁻¹ | 434000 M⁻¹ s⁻¹ | no binding (tested: 1 µg/mL) | – | 760 | no binding (tested: 1 µg/mL) | Monoclonal antibody 9F3.H9.H3.H3.B5.G2 (antibody, mouse IgG2a, V domains shown, also called ATCC PTA-11887) VH: ESGPGLVRPSQSLSLTCSVTGYSITSGYYWNWIRQFPGSRLEWMGYIKSDGSNNYNPSLKNRISITRDTSKNQFFLKLNSVTTEDTATYFCTREWKAMDYWGQGTSVTVSS VL: PAIMSASPGEKVTMTCRASSTVSYSYLHWYQQKSGASPQLWIYGTSNLASGVPARFSGSGSGTSYSLTISSVEAEDAATYYCQQYSGYPLTFGAGTKLELKR
0.102 nM | 3.99e-05 s⁻¹ | 393000 M⁻¹ s⁻¹ | no binding (tested: 1 µg/mL) | no binding (tested: 1 µg/mL) | 777 | no binding (tested: 1 µg/mL) | Monoclonal antibody 24F12.B1 (antibody, mouse IgG1, V domains shown, also called ATCC PTA-11886) VH: SGGGLVRPGGSLKLSCAASGFTFSSYAMSWVRQSPEKRLEWVAEIGSGGSYTYYPDTVTGRFTISRDNAKSTLYLEMSSLRSEDTAIYYCARETTAGYFDYWGQGTTLTVSS VL: TSSLSASLGDRVTISCSASQGINNFLNWYQQKPDGTVKLLIYYTSSLHSGVPSRFSGSGSGTDYSLTISNLEPEDIAIYYCQHFSKLPWTFGGGTKLEIKR
